Measured values from paper PMC8427195, “Dehydrogenation Mechanism of Three Stereoisomers of Butane-2,3-Diol in Pseudomonas putida KT2440” (Frontiers in Bioengineering and Biotechnology, 2021).

B1: R,R-BDH (PP0552), (2R,3R)-2,3-BDO dehydrogenase (Pseudomonas putida KT2440) (protein)
chain: MNDLSHTHMRAAVWHGRHDIRVEQVPLPADPAPGWVQIKVDWCGICGSDLHEYVAGPVFIPVEAPHPLTGIQGQCILGHEFCGHIAKLGEGVEGYAVGDPVAADACQHCGTCYYCTHGLYNICERLAFTGLMNNGAFAELVNVPANLLYRLPQGFPAEAGALIEPLAVGMHAVKKAGSLLGQTVVVVGAGTIGLCTIMCAKAAGAAQVIALEMSSARKAKAKEAGANVVLDPSQCDALAEIRALTAGLGADVSFECIGNKHTAKLAIDTIRKAGKCVLVGIFEEPSEFNFFELVSTEKQVLGALAYNGEFADVIAFIADGRLDIRPLVTGRIGLEQIVELGFEELVNNKEENVKIIVSPGVR

Legend:
[1] = target: (2R,3R)-2,3-BDO dehydrogenase (PP0552) of Pseudomonas putida KT2440 (Pseudomonas putida KT2440); test: SEC; Superdex 200 10/300 GL gel filtration; eluent 50 mM sodium phosphate pH 7.2, 150 mM sodium chloride, 0.5 mL min^-1; native molecular weight estimated against standard proteins and compared with the monomer mass
purified protein [2] = substrate: C[C@H](O)[C@@H](C)O; test: purified protein; conditions: oxidation with NAD+ (1 mM in general assay), 50 mM Tris-HCl pH 7.4, 30 °C
purified protein [3] = substrate: C[C@@H](O)[C@@H](C)O; test: purified protein; conditions: oxidation with NAD+ (1 mM in general assay), 50 mM Tris-HCl pH 7.4, 30 °C
purified protein [4] = substrate: NC(=O)c1ccc[n+]([C@@H]2O[C@H](COP(=O)(O)OP(=O)(O)OC[C@H]3O[C@@H](n4cnc5c(N)ncnc54)[C@H](O)[C@@H]3O)[C@@H](O)[C@H]2O)c1; test: purified protein; format: biochemical, Pseudomonas putida; conditions: oxidative direction, diol co-substrate not stated (10 mM in general assay), pH 7.4, 30 °C, varied: cofactor
purified protein [5] = substrate: CC(=O)C(C)O; test: purified protein; format: biochemical, Pseudomonas putida; conditions: reduction with NADH (0.2 mM in general assay), pH 7.4, 30 °C, apparent Km
purified protein [6] = substrate: NC(=O)C1=CN([C@@H]2O[C@H](COP(=O)(O)OP(=O)(O)OC[C@H]3O[C@@H](n4cnc5c(N)ncnc54)[C@H](O)[C@@H]3O)[C@@H](O)[C@H]2O)C=CC1; test: purified protein; format: biochemical, Pseudomonas putida; conditions: reductive direction, pH 7.4, 30 °C, apparent Km, varied: cofactor

stoichiometry N [1]	Molecule	Km (purified protein [2]) [µM]	kcat (purified protein [2]) [s⁻¹]	kcat/Km (purified protein [2]) [M⁻¹ s⁻¹]	Km (purified protein [3]) [µM]	kcat (purified protein [3]) [s⁻¹]	kcat/Km (purified protein [3]) [M⁻¹ s⁻¹]	Km (purified protein [4]) [µM]	kcat (purified protein [4]) [s⁻¹]	kcat/Km (purified protein [4]) [M⁻¹ s⁻¹]	Km (purified protein [5]) [µM]	kcat (purified protein [5]) [s⁻¹]	kcat/Km (purified protein [5]) [M⁻¹ s⁻¹]	Km (purified protein [6]) [µM]	kcat (purified protein [6]) [s⁻¹]	kcat/Km (purified protein [6]) [M⁻¹ s⁻¹]
4	(2R,3R)-2,3-BDO dehydrogenase (PP0552) of Pseudomonas putida KT2440 (enzyme)	–	–	–	–	–	–	–	–	–	–	–	–	–	–	–
–	B1	251 ± 22	21.1	84300	155 ± 16	23.9	154000	825 ± 96	52.8 ± 3.8	64300 ± 3120	101 ± 5	34.34 ± 0.256	341000 ± 16900	119 ± 22	53.3 ± 5.16	454000 ± 36600
